# Tested on: T1, peptide substrate SEQ ID NO: 1 Lys-Lys-Gly-Phe-Pro-Arg-Gly-Gly-Asp-Cys
# T1 sequence: KKGFPRGGDC
substance,measurement,value
trypsin,"limit of detection of trypsin (750 nM peptide, 60 min pre-exposure, 20 nm gold nanoparticles)",the limit of detection of the colloidal gold nanoparticle-based colorimetric assay developed in the present invention for sensing trypsin is about 20 pM of trypsin
same,"limit of detection of trypsin (750 nM peptide, 3 hours pre-exposure, 20 nm gold nanoparticles)",from 20 pM to approximately 2 to 10 pM
same,"limit of detection of trypsin (750 nM peptide, 3 hours pre-exposure, 30 nm gold nanoparticles)",further improved from about 2 to 10 pM to a range of from 500 fM to 2 pM
same,"ratio of the absorbance at 650 nm/absorbance at 520 nm (750 nM peptide, 60 min pre-exposure, trypsin up to 2 nM)",As the amount of trypsin is increased the absorbance band shifts toward what the gold nanoparticles show in the absence of any peptide and the ratio approaches a value of about 0.05
same,"time for complete hydrolytic cleavage (gold nanoparticle aggregation, ratio of absorbance at 650 nm to 520 nm; 1000 nM peptide, 200 pM trypsin, 20 C)",it took more than 60 min for complete hydrolytic cleavage of a solution of 1000 nM of the peptide substrate SEQ ID NO: 1 Lys-Lys-Gly-Phe-Pro-Arg-Gly-Gly-Asp-Cys by trypsin at a concentration of 200 pM
